Assay results published in publication PMC11912573, “Dynamic Assembly of Pentamer-Based Protein Nanotubes” (ACS Nano, 2025).
Changes are numbered by the printed parent chain. Numbers in names are those of the source. Where “and” joins values, the source holds several entries; their conditions need not be identical. Equal values may be shown once.

Experiments:
[1] = molecular target: the molecule itself; assay: cryo-EM micrographs; Glacios microscope, micrographs of the assemblies; buffer of these samples not given
[2] = molecular target: the molecule itself; assay: cryo-EM structure; cpAaLS(119, C37S, A85C) twisted tubes, helical reconstruction in three classes (0-, 18-, 28-Å gap); 50 mM Tris-HCl pH 8.5, 0.15 M NaCl, 1 mM TCEP
[3] = molecular target: the molecule itself; assay: cryo-EM 2D classification; cpAaLS(119) capsomers without NaCl at pH 8.5; Titan Krios; 3D reconstruction unsuccessful (preferential orientation)

B1: circularly permuted Aquifex aeolicus lumazine synthase cpAaLS(84) (enzyme)
chain: ATPHFDYIASEVSKGLANLSLELRKPITFGVITADTLEQAIERAGTKHGNKGWEAALSAIEMANLFKSLRGTGGSGSSMQIYEGKLTAEGLRFGIVASRFNHALVDRLVEGAIDCIVRHGGREEDITLVRVPGSWEIPVAAGELARKEDIDAVIAIGVLIRG
notes: Aquifex aeolicus lumazine synthase (AaLS), from the new N-terminus at residue 85 to the native C-terminus; octapeptide linker connecting the native C- and N-termini; Aquifex aeolicus lumazine synthase (AaLS), from the native N-terminus to the new C-terminus at residue 84; source: E. coli BL21-Gold(DE3), purified (heating at 70 °C, anion exchange, SEC)
B1: binds [1].

B2: cpAaLS(119, C37S, A85C) (enzyme, Aquifex aeolicus)
chain: TLEQAIERAGTKHGNKGWEAALSAIEMANLFKSLRGTGGSGSSMQIYEGKLTAEGLRFGIVASRFNHALVDRLVEGAIDSIVRHGGREEDITLVRVPGSWEIPVAAGELARKEDIDAVIAIGVLIRGCTPHFDYIASEVSKGLANLSLELRKPITFGVITAD
notes: Aquifex aeolicus lumazine synthase (AaLS), from the new N-terminus at residue 120 to the native C-terminus; octapeptide linker connecting the native C- and N-termini; Aquifex aeolicus lumazine synthase (AaLS), from the native N-terminus to the new C-terminus at residue 119, with C37S and A85C; Made from cpAaLS(119) by two rounds of site-directed mutagenesis; source: E. coli BL21-Gold(DE3), …
B2: binds [2].

B3: circularly permuted Aquifex aeolicus lumazine synthase cpAaLS(119) (enzyme)
chain: B2 chain with S80C, C128A
notes: Aquifex aeolicus lumazine synthase (AaLS), from the new N-terminus at residue 120 to the native C-terminus; includes the α-helix(120–131); octapeptide linker connecting the native C- and N-termini; Aquifex aeolicus lumazine synthase (AaLS), from the native N-terminus to the new C-terminus at residue 119; source: E. coli BL21-Gold(DE3), purified (heating at 70 °C, anion exchange, SEC)
B3 was tested, and the “stoichiometry N” value [3] was 5 and 10.
